Legend:
[1] = target: T1, wild-type GCGR extracellular domain expressed in 293XP cells (human, UniProt P47871 26-136, limits assumed); assay: flow cytometry on transfected 293XP cells
T1 construct: transfected into 293XP cells; also called WT GCGR
Experimental: (§1) To assist in gathering information on the GCGR epitope that the 6B5 binning group bound to, “alanine scanning mutagenesis” was undertaken. These alanine scanning mutagenesis platform is a technique used for mapping both linear and conformational antigen epitopes by evaluating the effects of point mutations across a target protein. Single residues in a target protein are replaced by alanine one at a time to construct a mutant library. Each variant is assayed for its ability to bind to an antibody of interest. […] Amino acids across the extracellular domain of GCGR were mutated to alanine and the anti-GCGR antibody Hz6B5 was tested for binding to the alanine mutants.
(§2) The wild-type GCGR extracellular domain and the alanine mutants were each transfected into 293XP cells and incubated for 24 hours. Antibody Hz6B5 was incubated with the transfected cells for 30 minutes at 4° C. After washing with PBS/1% BSA/0.1% azide, the cells were incubated with a labeled anti-mouse Fc antibody (Jackson Immunoresearch) for 30 minutes at 4° C. After washing with PBS/1% BSA/0.1% azide, the cells were analyzed using a flow cytometer BD (FACSCalibur instrument) and cytometric analytical software (FlowJo). A serum sample from a mouse immunized with human GCGR was used as positive control to confirm expression of the alanine mutants.

[2] = target: T2, GCGR extracellular domain alanine mutant L38A (human, UniProt P47871 26-136, limits assumed); assay: flow cytometry on transfected 293XP cells
T2 construct: expressed in 293XP cells
T2 chain: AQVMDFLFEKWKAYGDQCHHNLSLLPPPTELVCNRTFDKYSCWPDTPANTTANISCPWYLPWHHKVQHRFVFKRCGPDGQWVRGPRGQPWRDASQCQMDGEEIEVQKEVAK
Experimental: as §1, §2

% positive cells [1]: 87.8%
% positive cells [2]: 3.3%
B1: anti-GCGR antibody Hz6B5 (antibody, V domains shown)
VH: QVQLVQSGAEVKKPGSSVKVSCKASGFTFTNHWLGWVRQAPGQGLEWIGDIYPGGYYINYNEKFKGRVTITADESTSTAYMELSSLRSEDTAVYYCARHTNYGSDYWGQGTTVTVSS
VL: DVVMTQSPLSLPVTLGQPASISCRSSQSIVDSYGNTFLEWYQQRPGQSPRLLIYKVSNRLSGVPDRFSGSGSGTDFTLKISRVEAEDVGVYYCFQGSHVPWTFGQGTKLEIK
notes: Humanized 6B5

Source: patent US20240084023A1 (NGM BIOPHARMACEUTICALS, published 2024)
